Consider 2 molecules from paper doi:10.1101/2024.12.02.626348 (bioRxiv, 2024).

Among the targets are His-Erk1 (human, UniProt P27361 1-379); GST-Erk2 (human, UniProt P28482 1-360); GST-Erk1 (human, UniProt P27361 1-379).
What all share (experiment): pull-down

Chain of GST-Erk2 (P28482 whole entry): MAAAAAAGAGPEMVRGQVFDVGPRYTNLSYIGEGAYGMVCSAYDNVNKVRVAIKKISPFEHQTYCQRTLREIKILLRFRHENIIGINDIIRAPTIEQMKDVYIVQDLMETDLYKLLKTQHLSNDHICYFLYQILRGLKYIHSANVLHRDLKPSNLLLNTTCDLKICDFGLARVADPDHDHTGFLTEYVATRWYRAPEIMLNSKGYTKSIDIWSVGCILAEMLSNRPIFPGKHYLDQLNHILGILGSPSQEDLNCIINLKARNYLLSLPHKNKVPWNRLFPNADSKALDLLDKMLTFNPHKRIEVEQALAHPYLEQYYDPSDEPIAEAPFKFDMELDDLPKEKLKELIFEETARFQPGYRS
Chain of His-Erk1 (P27361 whole entry): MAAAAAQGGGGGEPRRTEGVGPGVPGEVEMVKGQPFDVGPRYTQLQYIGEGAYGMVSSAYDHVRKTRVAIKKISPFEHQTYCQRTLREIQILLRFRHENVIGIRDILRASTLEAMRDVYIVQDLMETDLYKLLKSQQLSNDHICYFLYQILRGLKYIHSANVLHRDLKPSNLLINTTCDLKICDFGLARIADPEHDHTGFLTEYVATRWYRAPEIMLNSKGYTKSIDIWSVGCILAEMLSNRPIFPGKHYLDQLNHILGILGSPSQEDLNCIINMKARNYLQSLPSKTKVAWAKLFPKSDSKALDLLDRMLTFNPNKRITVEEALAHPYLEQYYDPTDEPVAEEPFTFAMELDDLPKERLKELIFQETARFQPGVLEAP
Chain of GST-Erk1 (P27361 whole entry): as above

B1: GST-Arl4D (natural protein, human, UniProt P49703 1-201, looked up)
chain: MGNHLTEMAPTASSFLPHFQALHVVVIGLDSAGKTSLLYRLKFKEFVQSVPTKGFNTEKIRVPLGGSRGITFQVWDVGGQEKLRPLWRSYTRRTDGLVFVVDAAEAERLEEAKVELHRISRASDNQGVPVLVLANKQDQPGALSAAEVEKRLAVRELAAATLTHVQGCSAVDGLGLQQGLERLYEMILKRKKAARGGKKRR
Consider B1, for which the binding result with His-Erk1 is on record as “binds”.

B2: His-Arl4D (natural protein, human, UniProt P49703 1-201, looked up)
chain: MGNHLTEMAPTASSFLPHFQALHVVVIGLDSAGKTSLLYRLKFKEFVQSVPTKGFNTEKIRVPLGGSRGITFQVWDVGGQEKLRPLWRSYTRRTDGLVFVVDAAEAERLEEAKVELHRISRASDNQGVPVLVLANKQDQPGALSAAEVEKRLAVRELAAATLTHVQGCSAVDGLGLQQGLERLYEMILKRKKAARGGKKRR
In the case of B2, the binding result with GST-Erk2 and with GST-Erk1 was “binds” in each case.
